Source: article PMC6509359
One block for each substance: values may come before it.

Assays:
[1] = target: Chimera: Huma USP25 (157-[AIM of D. rerio USP28]-714) (human | zebrafish (Danio rerio)); test: SEC-MALS; 100 μL of 1-2 mg/mL protein on Superdex 200 10/300, 0.5 mL/min, PBS + 2 mM DTT
[2] = target: Chimera: Human USP25 (157-[Insert of Human USP28]-714) (human); test: as above
[3] = target: Chimera: Human USP28 (149-[Insert of Human USP25]-703) (human); test: as above
[4] = target: D. rerio USP28 (1-738,763-1187) (zebrafish (Danio rerio)); test: not stated; oligomeric states of purified orthologs and of full-length proteins, Figures S7A, S7B and S3J
[5] = target: D. rerio USP28 (138-684) (zebrafish (Danio rerio)); test: as above
[6] = target: G. gallus USP25 (174-726) (chicken (Gallus gallus)); test: as above
[7] = target: G. gallus USP25 (174-726)∼Ub-PA (chicken (Gallus gallus) | not stated); test: as above

Substance: Chimera: Human USP25 (157-[Insert of Human USP28]-714) (domain or fragment)
stoichiometry N [2]: 2

Substance: D. rerio USP28 (1-738,763-1187) (enzyme)
stoichiometry N [4]: 2

Substance: G. gallus USP25 (174-726) (domain or fragment)
stoichiometry N [6]: 4

Substance: G. gallus USP25 (174-726)∼Ub-PA (from UniProt P0CG48 1-75) (complex)
stoichiometry N [7]: 2

Second part, the substance after the results:

stoichiometry N [1]: 2
Substance: Chimera: Huma USP25 (157-[AIM of D. rerio USP28]-714) (domain or fragment)

stoichiometry N [3]: 2
Substance: Chimera: Human USP28 (149-[Insert of Human USP25]-703) (domain or fragment)

stoichiometry N [5]: 2
Substance: D. rerio USP28 (138-684) (domain or fragment)
